This is an account of results in the supplement of paper PMC12042874.

± gives the uncertainty stated by the source.

A short description of the data set: amyloid nucleation score (Sup35N fusion, yeast selection) (log enrichment); library NNK3; higher = more nucleation; inactive = no reads after selection. The procedure, abridged:
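Using DiMSum, nucleation scores were taken as the log enrichment of output over input reads, centred on the mode score of non-aggregating sequences. The input and output reads came from Illumina sequencing of plasmid inserts, with sequences under 100 input reads excluded. The yeast were psi-negative, expressed Sup35N fused to peptides of 20 random codons, were induced with 100 μM copper sulfate for 24 hours, and were grown 7 days at 30°C on medium lacking adenine and uracil.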

As for MGKTMILKLLY, the amyloid nucleation score result was “inactive”. Turning to FRQLQGTSMLYLATPWS, the amyloid nucleation score result is “inactive”. For AVSLGVTRSKIRLASKVRVD, the amyloid nucleation score result was “inactive”. Turning to LYDVGYKGQMVDGGTVCCER, the amyloid nucleation score was -0.257 ± 0.8. For the substance ARLAFGIGE, the amyloid nucleation score entry is “inactive”. On to FEYEKMLKAYGEGVIGSWLF, for which the amyloid nucleation score result was “inactive”. Consider GKRNEWN, for which the amyloid nucleation score result is “inactive”. LFFLRRNCHTDVSSLEYDNA: the amyloid nucleation score entry was “inactive”. For YFFWDLEILMHPFFQTVRNK, the amyloid nucleation score entry is “inactive”. Take MRLADLGMLGARTDQDRLPT: the amyloid nucleation score result was “inactive”.

On to VFGFMCNYSFVATSRLCVIG, for which the amyloid nucleation score result is “inactive”.

Take CFYLDQSRFRSA: the amyloid nucleation score entry is “inactive”. On to FSMSPSTTYRAFGHYSPGQH, for which the amyloid nucleation score was -0.074 ± 0.5. LNCAILASHSHYTK: the amyloid nucleation score result was “inactive”.

Regarding IYDCFVTGSFLRK, the amyloid nucleation score result is “inactive”. Take LCVIWIVSHRRDCMAFCEQQ: the amyloid nucleation score entry was “inactive”. CSPGTSCFGIKPRSSLSTTI: the amyloid nucleation score entry is “inactive”. As to WEFSVMSRCRKGHYTALFVV, the amyloid nucleation score result is “inactive”. Regarding VITMGMSLSSVSGLRDYLQE, the amyloid nucleation score was 1.36 ± 0.12. For the substance YRFGDILSVRSLQNFT, the amyloid nucleation score result is “inactive”. In the case of VSPVGSSRWWHDLHVSLETS, the amyloid nucleation score result was “inactive”.

Take DAHNRASLSYVPSYYVSFTA: the amyloid nucleation score entry was “inactive”.

GSTTCLYTSIPCCAGVLS returned an amyloid nucleation score of 0.449 ± 0.21. Regarding NMLYTKRNTVSSALVIYCVN, the amyloid nucleation score result was “inactive”. Turning to RNISDMEPS, the amyloid nucleation score entry was “inactive”. Turning to QQHRSALRVQVHRVCGNSVI, the amyloid nucleation score result is “inactive”. For the substance NMGTGGRLEGPVDSGHSEKF, the amyloid nucleation score entry is “inactive”. With SIFLMSFRA, the amyloid nucleation score was found to be 1.41 ± 0.1.

As to HSMNHFIWLVFKMVSYVACV, the amyloid nucleation score result is “inactive”. The same measure for EDRSHVAYTFFSALAQVT: “inactive”. VDSHANHGSNHRWSASDEIS: the amyloid nucleation score result is “inactive”. With YLFHSEGHWRDPHSLPSYLT, the amyloid nucleation score entry was “inactive”. For the substance AFWSH, the amyloid nucleation score result was “inactive”. For the substance ILINSRFMRFVFRAGHRV, the amyloid nucleation score entry was “inactive”. In the case of LSILTFGSCTNKSH, the amyloid nucleation score result is “inactive”. Turning to TVRDTEFLWFGDWLRRGSLS, the amyloid nucleation score is -0.034 ± 0.77. For the substance SNSLV, the amyloid nucleation score entry is “inactive”. With FPCSGPACYIYYTLHGLSLG, the amyloid nucleation score result was “inactive”. In the case of FVVELCVDPTFKLYD, the amyloid nucleation score entry is “inactive”. In the case of VGSIARLFVQTAMPVPKLAR, the amyloid nucleation score entry was “inactive”. In the case of HGIDKGLDVDETR, the amyloid nucleation score result is “inactive”.

In the case of TLSELLR, the amyloid nucleation score entry was “inactive”. On to TNSFAYNWLNAW, for which the amyloid nucleation score result is “inactive”. FYMAKRICKVQHGVNGPYAK: the amyloid nucleation score result is “inactive”. Turning to YYFLDRGGITSTIFRLLCPF, the amyloid nucleation score entry is “inactive”. As to LRVTKQVLSSMMFTITFGGD, the amyloid nucleation score result is “inactive”. For the substance LRWRHGCIR, the amyloid nucleation score entry is “inactive”. For YCYLGG, the amyloid nucleation score is -0.36 ± 0.8. Turning to IDGSYAFSKKPDPNSVKYIM, the amyloid nucleation score entry was “inactive”. For HVPYIHRIFIWTYK, the amyloid nucleation score result is “inactive”. For FACRVGGEHGGV the value was “inactive”. WDVTNLAGFLNDPVSLKLS: the amyloid nucleation score entry is “inactive”.

On to GSISMFNKG, for which the amyloid nucleation score result is “inactive”. Regarding ERIIFYCNRVRRMLYGGLVR, the amyloid nucleation score result is “inactive”. For VDSSRIKCSNVN the value was “inactive”; for EMLKVLVHS, “inactive”. GTGRSECNCMQGTHGLGICS: the amyloid nucleation score is -0.184 ± 1.5. For the substance SRSFKRNLVSMVNLGVRDEM, the amyloid nucleation score entry is “inactive”. For the substance MYRNECSMLSSIHLTVPSGN, the amyloid nucleation score result is “inactive”. Turning to LWHSYFSFYLCVTFENRVIN, the amyloid nucleation score was found to be 2.79 ± 0.052. With HCFLRMWKLLRTYLQVVLET, the amyloid nucleation score result is “inactive”.

With LVVLLFVFI, the amyloid nucleation score result is “inactive”.

Turning to GGRVNWM, the amyloid nucleation score entry was “inactive”. Regarding CDVHL, the amyloid nucleation score entry is “inactive”. FVVKYNWRYDLLIPYQMDLI: the amyloid nucleation score result was “inactive”. As for FHCSDYADVHSILTLLLVHT, the amyloid nucleation score entry is “inactive”.

Consider WIYRLWQGDIVPRVMTAHTA, for which the amyloid nucleation score was -0.735 ± 1.8. ILRLSPTFGRQSYSVKVGLK: the amyloid nucleation score result was “inactive”. Turning to GSVSPGNSILICFWFFWLLW, the amyloid nucleation score result was “inactive”. Consider PGHIYVML, for which the amyloid nucleation score entry was “inactive”. In turn, SLQISLRYKVIMQRMP had an amyloid nucleation score of 1.24 ± 0.16. For the substance IERSNFLQCPVRGLRNTARV, the amyloid nucleation score stood at 0.526 ± 0.26. As to NNYTSPMHRFRSNLFHCVSA, the amyloid nucleation score result is “inactive”.

In the case of QSFGSHYASVMAKY, the amyloid nucleation score result was “inactive”. For TKWFCVFTLSRNINRFTRL the value was “inactive”; for SGVKFSYNWQR, “inactive”. For IYHSYNESVCTYSNHPSRM the value was “inactive”; for SLQKWWDSLTHNLMVVTKHG, “inactive”. For IQNIVRLDSVVSMVFGRLVI the value was “inactive”; for FCFQAFF, “inactive”; for WGLLRYYE, 0.091 ± 0.28. In turn, RASFVLRCFKIDDVVVQFHL returned an amyloid nucleation score of 1.23 ± 0.15. Take VRSFFYRSLYQCISRNPCCA: the amyloid nucleation score result is “inactive”. As to FLDFQLFLCTHYLGRI, the amyloid nucleation score entry was “inactive”. With FLRCIC, the amyloid nucleation score result was “inactive”. Take SSSSNANGFNRHYLSVRFGE: the amyloid nucleation score result was “inactive”.

For the substance STIFTVAVFDCNEHLARSKS, the amyloid nucleation score entry is “inactive”. Consider GCTFRNWIWWLHRFDKMR, for which the amyloid nucleation score was 0.861 ± 0.15. For VKVLYSIAMGIGHGSIGKVC the value was -0.835 ± 0.96. As for SSGAQQCILISSLVLNEDWL, the amyloid nucleation score is -0.46 ± 0.76. For DRYDSVYEDGLLLLMFFDHV, the amyloid nucleation score entry is “inactive”.

Take ASKALIWCLSRCIDLVVLRE: the amyloid nucleation score result was “inactive”. Take NHLIQIG: the amyloid nucleation score entry is “inactive”. Take FACFAVIILHVIMYVRMSSV: the amyloid nucleation score result was “inactive”.

In the case of SVLGRHYVYLLSIVCGVIFG, the amyloid nucleation score entry is “inactive”. SMNKFKF: the amyloid nucleation score result is “inactive”. The substance RLLFMIPIMIVMNQHPTMNV gave an amyloid nucleation score of 1.01 ± 0.17. KFRKTRSKR: the amyloid nucleation score result is “inactive”.

Turning to SGLDSWY, the amyloid nucleation score entry is “inactive”.

Regarding IVVFLDLFRDTFGLGLPTKG, the amyloid nucleation score entry was “inactive”. The same measure for QFCVQRFYGVEKKLLTLWGF: 0.088 ± 0.75. The substance LFDFHSSCKSAVIAYLLSRR had an amyloid nucleation score of 0.138 ± 0.47. For the substance TRHWDVRSRISRTLVCFGLK, the amyloid nucleation score entry was “inactive”. For VSRCRVHKFTGYC the value was -0.441 ± 0.8. Consider VLSGNFNTSDFLLMFLITSQ, for which the amyloid nucleation score result is “inactive”. Consider NFLLVPYLSPKLDMGGYHLW, for which the amyloid nucleation score result is “inactive”. Take ACESCSFTSWRTYLCSKVRT: the amyloid nucleation score is -0.172 ± 1.5. For FLRGLVK the value was “inactive”; for NIWVQ, “inactive”; for VFVMETTKLFSNDIGVRGGW, 0.717 ± 0.15. On to LFFLTCRCVRNAYHRYMVCI, for which the amyloid nucleation score result was “inactive”. CNFERFALCDYLSVLFNFQR came in with an amyloid nucleation score of 1.54 ± 0.13. As to NLTYVMGSGWLLYQCVIM, the amyloid nucleation score came to 2.61 ± 0.057. LGCRYFHYAILNPHQLDKIG: the amyloid nucleation score result is “inactive”. Turning to TQRTGY, the amyloid nucleation score result was “inactive”. SICSEVGSSQLVVL: the amyloid nucleation score result is “inactive”. The same measure for NSFVVTCLVSVGKRGKSRWL: 1.25 ± 0.13; for TCEWLSNYFKDLFIMVLSIS: “inactive”. For the substance LACSMLCVDPIADGHNFSYS, the amyloid nucleation score entry is “inactive”. For STTHEYDI the value was “inactive”.

For the substance ACRYDLSKKPNASWARAEG, the amyloid nucleation score is -0.272 ± 0.37. On to IRTNAGSLYFYWGTLFRISH, for which the amyloid nucleation score result was “inactive”. The same measure for HFLFVMSCPKWAVRFLAFVD: “inactive”; for VRRSMATLFWCWDYTNLDCI: “inactive”; for YAIAAYFDKRRIVGWVINCS: “inactive”.

In the case of ISLYNRNIYCRLTFMLRVIR, the amyloid nucleation score result was “inactive”.

Turning to YAARNWIVQVD, the amyloid nucleation score result was “inactive”. Consider SAYFAVY, for which the amyloid nucleation score result is “inactive”. FSRTSCVGDCYCGAYNRLSG: the amyloid nucleation score was 2.02 ± 0.095. As to GHCKCGPVGPNKRTAR, the amyloid nucleation score entry was “inactive”. Regarding KPWIFMESRDM, the amyloid nucleation score result is “inactive”.

Regarding HSLLMCSMLLRFYVQYPICI, the amyloid nucleation score entry was “inactive”.
